Experiments:
[1] = target: T1, Retinol binding protein-4 (RBP-4) (UniProt P02753 19-201); assay: EIS (electrochemical impedance, Langmuir linearization); same measurement as the Kd row; 2 mM MgCl2; 0.1 M PBS + 2 mM MgCl2, Fe(CN)6 3-/4- redox probe, aptamer on gold electrode with MCH; aptamer folded at 70 C 1 min then ice 10 min; immobilization at room temp
[2] = target: T1, Retinol binding protein-4 (RBP-4); assay: EIS (electrochemical impedance, Langmuir linearization); folded aptamer, 0.1 uM in immobilization; 2 mM MgCl2; Fe(CN)6 3-/4- probe; 0.1 M PBS + 2 mM MgCl2, Fe(CN)6 3-/4- redox probe, aptamer on gold electrode with MCH; aptamer folded at 70 C 1 min then ice 10 min; immobilization at room temp

## ACAGTAGTGAGGGGTCCGTCGTGGGGTAGTTGGGTCGTGG (ssDNA, 5'-thiol (-SH)) [Apt-RBP-4]
[1]
  Ka: 2e+07 M⁻¹
[2]
  Kd: 50 nM
